Columns and labels:
[1] = target: T1, Soluble human FGFR4/KLB receptor complex (FGFR4 ectodomain-Fc with soluble KLB) (human, UniProt P22455 22-369; Q86Z14 1-996); test: AlphaScreen or HTRF; cell-free competition: biotinylated FGF21 on streptavidin donor beads, FGFR1c-Fc or FGFR4-Fc ectodomain on Protein A acceptor beads, human soluble KLB added to give the signal; 5 μg/ml heparin, 0.1% BSA; increasing doses of unlabelled protein or peptide displace biotinylated FGF21; conditions: both partners purified
T1 construct: human FGFR4 ectodomain fused to Fc, coupled to Protein A acceptor beads; human beta-Klotho (KLB) protein, called human soluble KLB; also called hFGFR4/KLB; source: bought: R&D Systems (both chains)
T1 sequence (looked up) 1: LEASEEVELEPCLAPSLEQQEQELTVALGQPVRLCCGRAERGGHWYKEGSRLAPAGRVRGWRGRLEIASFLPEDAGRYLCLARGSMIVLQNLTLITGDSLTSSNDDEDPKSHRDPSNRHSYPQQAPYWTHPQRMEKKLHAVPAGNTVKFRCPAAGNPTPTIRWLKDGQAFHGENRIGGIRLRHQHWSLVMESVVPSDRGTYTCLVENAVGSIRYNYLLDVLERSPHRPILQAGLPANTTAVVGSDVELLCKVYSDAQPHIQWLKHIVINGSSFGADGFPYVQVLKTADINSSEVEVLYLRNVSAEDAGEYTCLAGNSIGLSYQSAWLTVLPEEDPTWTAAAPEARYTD
T1 sequence (looked up) 2: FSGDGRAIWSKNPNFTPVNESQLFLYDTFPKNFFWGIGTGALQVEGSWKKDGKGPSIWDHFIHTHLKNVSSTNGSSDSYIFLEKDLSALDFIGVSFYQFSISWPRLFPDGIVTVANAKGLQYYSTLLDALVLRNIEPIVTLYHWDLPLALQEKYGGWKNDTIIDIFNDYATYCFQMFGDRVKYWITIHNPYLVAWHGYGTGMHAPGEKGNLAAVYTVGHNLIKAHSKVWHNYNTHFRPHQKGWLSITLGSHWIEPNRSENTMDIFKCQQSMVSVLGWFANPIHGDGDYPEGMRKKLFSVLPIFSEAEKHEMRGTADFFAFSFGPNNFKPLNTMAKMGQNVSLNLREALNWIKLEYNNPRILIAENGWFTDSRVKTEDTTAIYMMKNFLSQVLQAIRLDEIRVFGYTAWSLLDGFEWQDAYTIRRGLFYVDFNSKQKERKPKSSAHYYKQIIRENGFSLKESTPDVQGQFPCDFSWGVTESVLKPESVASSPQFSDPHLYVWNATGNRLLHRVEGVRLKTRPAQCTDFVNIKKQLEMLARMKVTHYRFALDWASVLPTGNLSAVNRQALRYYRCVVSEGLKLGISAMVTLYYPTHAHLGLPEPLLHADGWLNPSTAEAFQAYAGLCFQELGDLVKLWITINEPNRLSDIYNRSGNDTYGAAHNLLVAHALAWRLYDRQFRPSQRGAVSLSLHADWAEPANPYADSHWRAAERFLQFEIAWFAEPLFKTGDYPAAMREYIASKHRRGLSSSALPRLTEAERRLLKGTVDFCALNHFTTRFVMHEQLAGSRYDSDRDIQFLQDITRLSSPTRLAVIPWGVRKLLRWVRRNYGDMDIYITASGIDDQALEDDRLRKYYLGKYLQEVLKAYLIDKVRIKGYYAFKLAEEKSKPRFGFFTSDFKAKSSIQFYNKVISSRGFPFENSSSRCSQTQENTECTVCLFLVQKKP

[2] = target: T2, Soluble human FGFR1c/KLB receptor complex (FGFR1c ectodomain-Fc with soluble KLB) (human, UniProt P11362 22-376; Q86Z14 1-996); test: as above; conditions: both partners purified
T2 construct: human FGFR1c ectodomain fused to Fc, coupled to Protein A acceptor beads; human beta-Klotho (KLB) protein, called human soluble KLB; also called FGFR1/KLB complex; soluble FGFR1/KLB receptor complex; source: bought: R&D Systems (both chains)
T2 sequence (looked up) 1: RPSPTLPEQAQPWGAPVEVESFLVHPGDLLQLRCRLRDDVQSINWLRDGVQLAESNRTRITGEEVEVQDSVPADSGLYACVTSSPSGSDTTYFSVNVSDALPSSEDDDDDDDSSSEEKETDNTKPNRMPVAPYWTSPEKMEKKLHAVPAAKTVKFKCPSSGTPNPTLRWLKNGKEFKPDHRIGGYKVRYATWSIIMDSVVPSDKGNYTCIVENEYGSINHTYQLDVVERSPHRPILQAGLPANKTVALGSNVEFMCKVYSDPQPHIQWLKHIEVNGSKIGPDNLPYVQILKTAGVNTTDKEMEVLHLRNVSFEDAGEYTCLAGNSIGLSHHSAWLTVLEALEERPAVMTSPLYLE
T2 sequence (looked up) 2: T1 sequence (looked up) 2

IC50 [1]: 1220 nM
IC50 [2]: 123 nM
B1: Human FGF21 (1-181) (ligand, UniProt Q9NSA1 29-209, looked up)
chain: HPIPDSSPLLQFGGQVRQRYLYTDDAQQTEAHLEIREDGTVGGAADQSPESLLQLKALKPGVIQILGVKTSRFLCQRPDGALYGSLHFDPEACSFRELLLEDGYNVYQSEAHGLPLHLPGNKSPHRDPAPRGPARFLPLPGLPPALPEPPGILAPQPPDVGSSDPLSMVGPSQGRSPSYAS
notes: also called fibroblast growth factor 21; native FGF21; source: E. coli OrigamiB (DE3), purified (Ni-NTA, SUMO protease digestion, Q-Sepharose)

Source: publication PMC6026317, “Molecular elements in FGF19 and FGF21 defining KLB/FGFR activity and specificity” (Molecular Metabolism, 2018)
